Laboratory results reported in patent publication US20230365653A1 (MABWELL SHANGHAI BIOSCIENCE, published 2023).

T1: human TGF-β 2 (Cat: CJ79, Novoprotein Scientific Inc.) (human) (UniProt P61812)
T1 sequence (looked up): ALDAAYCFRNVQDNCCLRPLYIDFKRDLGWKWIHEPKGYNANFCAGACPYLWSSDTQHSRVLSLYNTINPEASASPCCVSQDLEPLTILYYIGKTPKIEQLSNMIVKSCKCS

T2: human TGF-β 3 (Cat: CJ44, Novoprotein Scientific Inc.) (human) (UniProt P10600)
T2 sequence (looked up): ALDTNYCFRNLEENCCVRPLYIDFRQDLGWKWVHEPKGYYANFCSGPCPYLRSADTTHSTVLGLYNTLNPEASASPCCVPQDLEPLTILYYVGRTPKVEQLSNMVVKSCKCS

B1: PD-L1 antibody H182-MUT4 (antibody, human IgG1, kappa, V domains shown)
VH: EVQLVQSGAEVKKPGATVKISCKVSGFNIKDIYMHWVQQAPGKGLEWMGRIDPANANTKYDPKFQDRVTITADTSTNTAYMELSSLRSEDTAVYYCASGQLGPLGFDYWGQGTTVTVSS
VL: DIQMTQSPSSLSASVGDRVTITCRASQDISNYLNWYQQKPGKAPKLLLYYTSRLHSGVPSRFSGSGSGTDYTLTISSLQPEDFATYFCQQGAGRPYTFGGGTKVEIKR
notes: 25-30 for the anti-human PD-L1 antibody without naming H182-MUT4; also called MW22

Assays:
[1] = biological target: recombinant human TGF-β 1 protein (Cat: CA59, Novoprotein Scientific Inc.) (human) (UniProt P01137); assay: ELISA, target coated at 1 µg/ml, HRP-anti-human Fc detection
[2] = biological target: T1, human TGF-β 2 (Cat: CJ79, Novoprotein Scientific Inc.) (human); assay: as above
[3] = biological target: T2, human TGF-β 3 (Cat: CJ44, Novoprotein Scientific Inc.) (human); assay: as above
[4] = biological target: recombinant human TGF-β 1 protein (Cat: CA59, Novoprotein Scientific Inc.) (human) (UniProt P01137); assay: BLI (Octet QKe), binder captured on AHC biosensor, 1:1 fit
[5] = biological target: T3, recombinant human PD-L1-his protein (Accession No.: NP_054862.1, 19 aa-238 aa) (human, UniProt Q9NZQ7 19-238); assay: BLI (Octet QKe), binder captured on AHC biosensor, analyte 60 nM, 1:1 fit
T3 construct: range 19-238; also called recombinant human PD-L1 extracellular domain protein; not shown: his tag
From the text: Antibody affinity was detected by an assay including capturing antibody Fc fragment with anti-human IgG Fc capture (AHC) biosensors on Octet QKe system instrument from Fortebio. […] The binding time was 300 s and the dissociation time was 300 s.

Chain of recombinant human TGF-β 1 protein (Cat: CA59, Novoprotein Scientific Inc.) (human) (P01137 279-390 limits assumed): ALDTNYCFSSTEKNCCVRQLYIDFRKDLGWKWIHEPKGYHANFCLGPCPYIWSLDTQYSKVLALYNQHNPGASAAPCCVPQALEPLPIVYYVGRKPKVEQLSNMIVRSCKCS
T3 sequence (Q9NZQ7 19-238 limits assumed): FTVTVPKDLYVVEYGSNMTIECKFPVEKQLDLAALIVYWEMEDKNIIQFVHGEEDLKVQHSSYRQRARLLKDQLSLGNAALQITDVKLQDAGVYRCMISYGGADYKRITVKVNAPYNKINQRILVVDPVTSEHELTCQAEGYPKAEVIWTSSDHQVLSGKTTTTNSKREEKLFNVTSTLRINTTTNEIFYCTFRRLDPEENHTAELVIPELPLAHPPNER

Molecule | EC50 [1] | EC50 [2] | EC50 [3] | Kd [4] | Kd [5]
recombinant protein M7824 (anti-human PD-L1 antibody/TGF-β RII fusion protein control) | 0.472 nM | 18.2 nM | 0.981 nM | 2.81 nM | –
B1 | – | – | – | – | 0.433 nM
